In the test the target is T1, Recombinant human TLR4/MD2 complex (human, UniProt O00206 24-631; Q9Y6Y9 19-160).
T1 construct: Toll-like receptor 4 (TLR4), human, soluble recombinant; MD2 (lymphocyte antigen 96), human, recombinant; No catalogue number is printed; also called rTLR4/MD2; soluble recombinant TLR4/MD2; source: bought: R&D system
Put plainly: ELISA; solid-phase binding assay: recombinant TLR4/MD2 (1 µg/ml) coated on 96 maxisorp well plates overnight at 4 °C; GST or GST-Tat at 0.1-1 µM for 2 hours at room temperature; detected with anti-GST and a peroxidase-conjugated secondary antibody. As to conditions: both partners purified.

T1 sequence (O00206 24-631, chain 1 of 2): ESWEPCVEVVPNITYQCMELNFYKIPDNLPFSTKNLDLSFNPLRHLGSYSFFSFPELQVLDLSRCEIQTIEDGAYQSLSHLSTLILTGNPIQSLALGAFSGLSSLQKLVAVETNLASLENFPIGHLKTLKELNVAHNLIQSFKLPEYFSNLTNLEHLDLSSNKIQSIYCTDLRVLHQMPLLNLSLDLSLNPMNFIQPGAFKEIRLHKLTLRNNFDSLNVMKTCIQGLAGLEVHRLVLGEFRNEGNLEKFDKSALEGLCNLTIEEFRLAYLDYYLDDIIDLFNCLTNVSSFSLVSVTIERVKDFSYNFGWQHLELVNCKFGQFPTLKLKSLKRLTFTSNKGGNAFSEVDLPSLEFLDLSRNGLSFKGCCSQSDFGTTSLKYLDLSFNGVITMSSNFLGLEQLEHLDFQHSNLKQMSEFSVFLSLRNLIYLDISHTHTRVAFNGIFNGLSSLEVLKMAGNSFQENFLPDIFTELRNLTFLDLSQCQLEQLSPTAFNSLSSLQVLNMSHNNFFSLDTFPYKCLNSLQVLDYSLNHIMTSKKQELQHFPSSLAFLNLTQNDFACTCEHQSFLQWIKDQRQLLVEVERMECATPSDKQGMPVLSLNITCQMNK
T1 sequence (Q9Y6Y9 19-160, chain 2 of 2): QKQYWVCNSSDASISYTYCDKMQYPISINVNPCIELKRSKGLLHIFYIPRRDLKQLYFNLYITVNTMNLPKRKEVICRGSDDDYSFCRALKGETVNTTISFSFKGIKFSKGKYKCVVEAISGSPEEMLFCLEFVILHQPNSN

B1: Recombinant HIV-1 Tat full length protein (Tat 1-101) fused to glutathione S-transferase (natural protein)
chain: MEPVDPNLEPWKHPGSQPRTACNNCYCKKCCFHCYACFTRKGLGISYGRKKRRQRRRAPQDSQTHQASLSKQPASQSRGDPTGPTESKKKVERETETDPFD
notes: Tat protein of HIV-1 group M subtype B (isolate SF2), full length protein, Tat 1-101; Endotoxin below 0.3 EU/µg; also called GST-Tat 1-101; GST-Tat1-101
On to B1, for which the binding result is “binds”.
